Assay results reported in article PMC4596688 (2015).
Ends that are not written are not given here. * marks the point of attachment. FITC = O=C1OC2(c3ccc(O)cc3Oc3cc(O)ccc32)c2ccc(NC(=S)*)cc21

Key:
[1] = molecular target: T1, Full-length human CRM1 (HsCRM1) (human, UniProt O14980 1-1071); test: MST; competition with FITC-PKI^NES
[2] = molecular target: T1, Full-length human CRM1 (HsCRM1); test: MST; direct titration, middle panel
[3] = molecular target: T1, Full-length human CRM1 (HsCRM1); test: MST; direct titration, left panel
[4] = molecular target: T1, Full-length human CRM1 (HsCRM1); test: MST; direct titration, right panel

T1 sequence (O14980 whole entry): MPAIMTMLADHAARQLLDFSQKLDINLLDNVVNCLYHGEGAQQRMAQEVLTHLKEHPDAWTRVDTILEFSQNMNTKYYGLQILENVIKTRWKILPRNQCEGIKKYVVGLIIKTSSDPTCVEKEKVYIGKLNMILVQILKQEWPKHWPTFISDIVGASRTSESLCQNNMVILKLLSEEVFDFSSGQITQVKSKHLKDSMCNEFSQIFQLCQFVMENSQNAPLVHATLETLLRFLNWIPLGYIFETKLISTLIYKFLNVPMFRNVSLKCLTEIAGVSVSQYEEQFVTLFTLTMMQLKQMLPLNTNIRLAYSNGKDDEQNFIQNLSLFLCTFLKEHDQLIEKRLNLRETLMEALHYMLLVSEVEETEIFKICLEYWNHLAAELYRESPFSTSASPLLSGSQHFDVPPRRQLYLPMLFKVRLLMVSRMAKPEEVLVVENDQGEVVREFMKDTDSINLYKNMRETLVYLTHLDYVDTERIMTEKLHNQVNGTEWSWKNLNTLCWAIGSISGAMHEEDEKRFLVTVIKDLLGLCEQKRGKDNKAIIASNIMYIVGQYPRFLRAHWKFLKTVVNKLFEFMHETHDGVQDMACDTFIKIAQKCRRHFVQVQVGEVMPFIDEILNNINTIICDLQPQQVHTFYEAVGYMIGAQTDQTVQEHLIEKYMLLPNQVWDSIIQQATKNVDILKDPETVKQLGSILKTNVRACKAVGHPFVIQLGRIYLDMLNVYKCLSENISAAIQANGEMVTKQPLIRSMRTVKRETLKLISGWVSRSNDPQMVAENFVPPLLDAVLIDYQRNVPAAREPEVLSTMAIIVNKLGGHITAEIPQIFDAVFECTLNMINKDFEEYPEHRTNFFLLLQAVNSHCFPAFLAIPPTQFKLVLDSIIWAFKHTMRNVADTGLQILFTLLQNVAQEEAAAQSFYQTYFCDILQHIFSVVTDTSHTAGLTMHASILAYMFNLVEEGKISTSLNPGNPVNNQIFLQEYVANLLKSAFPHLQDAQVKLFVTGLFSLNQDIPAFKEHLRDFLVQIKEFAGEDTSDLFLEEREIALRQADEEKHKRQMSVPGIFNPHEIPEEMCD

| Kd [1] [nM] | Kd [2] [nM] | Kd [3] [nM] | Kd [4] [nM] | Binder |
| --- | --- | --- | --- | --- |
| 36 |  |  |  | SNELALKLAGLDI [MBP-PKI^NES] |
| 12000 |  |  |  | MEELSQALASSFSVSQ [MBP-SNUPN^NES] |
|  | 30 | 37 | 44 | {FITC}-SGNSNELALKLAGLDINKT [FITC-PKI^NES peptide (FITC-SGNSNELALKLAGLDINKT)] |
